{
  "source": "patent US20250171542A1",
  "about": "(ADEPT THERAPEUTICS, published 2025)",
  "binders": {"B1": {"name": "32E2 (antibody, human IgG1, V domains shown)", "VH": "QEQLEESGGDLVKPEGSLTLTCTASGFSFSSSYYMSWVRQAPGMGLEWIASISGGVTDNAYYASWAKGRFTVSKTSSTTVTLQLTSLTAADTATYFCARDSSSGYFFLLWGPGTLVTVSS", "VL": "LVMTQTPSSVSAAVGGTVTINCQASQNIYSNLAWYQQKPGQRPKLLIFGASNLRSGVPSRFKGSGSGTEYTLTISDLECADAATYYCQEGYSIGNVDNPFGGGTEVVVK"}, "B2": {"name": "33H7 (antibody, human IgG1, V domains shown)", "VH": "QEQLVESGGGLVQPEGSLTVTCTASGFDLSRYFYMSWVRQAPGKGLEWIASISTGSDITDYASWAKGRFTISKTSSTTVTLQMTTLTAADTAIYFCARWTSGGGGFGLWGPGTLVTVSS", "VL": "QVLTQTASPVSAAVGGTVTLNCQSSQSIYNNYLSWYQQRAGQPPKLLIYSTATLASGVPSRFKGSGSGTQFTLTISEIQCEDAATYYCQGYYSGYIWTFGGGTEVVVK"}, "B3": {"name": "28B3 (antibody, human IgG1, V domains shown)", "VH": "QSVEESGGRLVTPGTPLTLSCTASGFSLSSYYMIWVRQAPGKGLEYIGYVYTGSGNTWYASWAKGRFAISKASTTVDLMITSPTTEDTATYFCASGADGVYDWGWDIWGPGTLVTVSL", "VL": "DIVMTQTPASVEAAVGDTVTIKCQASQSIYSLLAWYQQKPGQRPKLLIAGASNLESGVPSRFSGSGSGTEYTLTISALECADAATYYCQNNYDSGRIYGLAFGGGTEVVVK"}, "B4": {"name": "33E8 (antibody, human IgG1, V domains shown)", "VH": "QSLEESGGDLVKPGASLTLTCTASGFYFSSGYDMSWVRQAPGKGLEWIASIFTTSGSTWYANWAKGRFTISKTSSTTVTLQMTSLTDADTATYFCTKDGVGSFYMNLWGPGTLVTVSS", "VL": "LVMTQTPASVEVAVGGTVTIKCQASQTIGSNLAWYQQRPGQPPKLLIYKAFTLASGVSSRFKGSGSGTQFTLTISGVECADAATYYCQQGATRINIDNAFGGGTEVVVK"}},
  "data": [
    {"biological_target": "mouse PD-L1 (Sino Biological, Cat #50010-M08H) (mouse, UniProt Q9EP73 19-238)", "sequence (Q9EP73 19-238 limits assumed, stated change not applied)": "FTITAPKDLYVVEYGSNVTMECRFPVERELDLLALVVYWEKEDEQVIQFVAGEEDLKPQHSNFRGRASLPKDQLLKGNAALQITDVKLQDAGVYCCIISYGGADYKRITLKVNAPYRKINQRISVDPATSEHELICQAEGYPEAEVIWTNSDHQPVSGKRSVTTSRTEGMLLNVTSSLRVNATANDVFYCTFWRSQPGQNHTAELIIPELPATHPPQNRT", "assay": "ELISA", "values": [
      {"binder": "B1", "binding result": "no binding"},
      {"binder": "B2", "binding result": "no binding"},
      {"binder": "B3", "binding result": "no binding"},
      {"binder": "B4", "binding result": "no binding"}
    ]},
    {"biological_target": "T1, B7-H3 (Sino Biological, Cat #11188-H08H) (UniProt Q5ZPR3 29-461)", "T1 sequence (looked up)": "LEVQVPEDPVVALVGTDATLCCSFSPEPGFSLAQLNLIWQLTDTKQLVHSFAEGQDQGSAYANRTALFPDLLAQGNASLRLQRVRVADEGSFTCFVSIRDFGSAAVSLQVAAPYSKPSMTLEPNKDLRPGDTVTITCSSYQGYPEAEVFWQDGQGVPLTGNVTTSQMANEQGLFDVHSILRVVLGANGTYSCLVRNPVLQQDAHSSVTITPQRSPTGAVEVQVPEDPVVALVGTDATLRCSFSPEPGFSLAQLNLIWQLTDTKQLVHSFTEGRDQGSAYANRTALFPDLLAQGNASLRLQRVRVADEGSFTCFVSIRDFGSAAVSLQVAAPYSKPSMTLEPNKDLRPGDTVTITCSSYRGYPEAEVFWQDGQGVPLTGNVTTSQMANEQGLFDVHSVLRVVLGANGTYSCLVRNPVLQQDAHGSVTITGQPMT", "assay": "ELISA", "values": [
      {"binder": "B1", "binding result": "no binding"},
      {"binder": "B2", "binding result": "no binding"},
      {"binder": "B3", "binding result": "no binding"},
      {"binder": "B4", "binding result": "no binding"}
    ]},
    {"biological_target": "T2, PD-L2 (Sino Biological, Cat #10292-H08H) (UniProt Q9BQ51 20-219)", "T2 sequence (looked up)": "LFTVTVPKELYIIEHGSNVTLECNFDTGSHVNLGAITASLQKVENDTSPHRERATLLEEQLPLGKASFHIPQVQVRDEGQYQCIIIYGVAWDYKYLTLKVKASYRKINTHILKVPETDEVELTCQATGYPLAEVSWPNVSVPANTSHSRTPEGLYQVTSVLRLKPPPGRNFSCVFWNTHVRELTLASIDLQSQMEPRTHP", "assay": "ELISA", "values": [
      {"binder": "B1", "binding result": "no binding"},
      {"binder": "B2", "binding result": "no binding"},
      {"binder": "B3", "binding result": "no binding"},
      {"binder": "B4", "binding result": "no binding"}
    ]},
    {"biological_target": "T3, human PD-L1 expressed on cell surface (human, UniProt Q9NZQ7 19-290)", "T3 sequence (Q9NZQ7 19-290 limits assumed)": "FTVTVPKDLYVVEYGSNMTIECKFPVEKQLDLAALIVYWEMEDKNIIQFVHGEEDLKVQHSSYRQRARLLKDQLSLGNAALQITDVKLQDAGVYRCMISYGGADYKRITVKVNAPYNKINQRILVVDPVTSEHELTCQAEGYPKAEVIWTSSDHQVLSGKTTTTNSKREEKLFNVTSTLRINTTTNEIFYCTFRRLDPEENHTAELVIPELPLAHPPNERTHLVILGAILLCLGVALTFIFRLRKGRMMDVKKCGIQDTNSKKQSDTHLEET", "assay": "cell-based or functional assay", "units": {"Internalization (%), FACS, 0.25 µg/ml, 2 h": "%", "Internalization (%), FACS, 0.25 µg/ml, 4 h": "%", "Internalization (%), FACS, 0.5 µg/ml, 2 h": "%", "Internalization (%), FACS, 0.5 µg/ml, 4 h": "%", "Internalization (%), FACS, 1 µg/ml, 2 h": "%", "Internalization (%), FACS, 1 µg/ml, 4 h": "%", "Internalization (%), FACS, 2 µg/ml, 2 h": "%", "Internalization (%), FACS, 2 µg/ml, 4 h": "%"}, "values": [
      {"binder": "B1", "Internalization (%), FACS, 0.25 µg/ml, 2 h": 2.2, "Internalization (%), FACS, 0.25 µg/ml, 4 h": -25.9, "Internalization (%), FACS, 0.5 µg/ml, 2 h": 0.4, "Internalization (%), FACS, 0.5 µg/ml, 4 h": 5.6, "Internalization (%), FACS, 1 µg/ml, 2 h": 1.1, "Internalization (%), FACS, 1 µg/ml, 4 h": 7.2, "Internalization (%), FACS, 2 µg/ml, 2 h": 2.4, "Internalization (%), FACS, 2 µg/ml, 4 h": 7.6},
      {"binder": "B2", "Internalization (%), FACS, 0.25 µg/ml, 2 h": 15.2, "Internalization (%), FACS, 0.25 µg/ml, 4 h": 12.3, "Internalization (%), FACS, 0.5 µg/ml, 2 h": 17, "Internalization (%), FACS, 0.5 µg/ml, 4 h": 14.2, "Internalization (%), FACS, 1 µg/ml, 2 h": 14.4, "Internalization (%), FACS, 1 µg/ml, 4 h": 12.4, "Internalization (%), FACS, 2 µg/ml, 2 h": 17.8, "Internalization (%), FACS, 2 µg/ml, 4 h": 12.6},
      {"binder": "B3", "Internalization (%), FACS, 0.25 µg/ml, 2 h": 20.4, "Internalization (%), FACS, 0.25 µg/ml, 4 h": 17.6, "Internalization (%), FACS, 0.5 µg/ml, 2 h": 12, "Internalization (%), FACS, 0.5 µg/ml, 4 h": 19.9, "Internalization (%), FACS, 1 µg/ml, 2 h": 15.3, "Internalization (%), FACS, 1 µg/ml, 4 h": 15.5, "Internalization (%), FACS, 2 µg/ml, 2 h": 8.3, "Internalization (%), FACS, 2 µg/ml, 4 h": 6},
      {"binder": "B4", "Internalization (%), FACS, 0.25 µg/ml, 2 h": 20.9, "Internalization (%), FACS, 0.25 µg/ml, 4 h": 21.6, "Internalization (%), FACS, 0.5 µg/ml, 2 h": 22.8, "Internalization (%), FACS, 0.5 µg/ml, 4 h": 25.8, "Internalization (%), FACS, 1 µg/ml, 2 h": 20.4, "Internalization (%), FACS, 1 µg/ml, 4 h": 23.3, "Internalization (%), FACS, 2 µg/ml, 2 h": 29.6, "Internalization (%), FACS, 2 µg/ml, 4 h": 30.2}
    ]},
    {"biological_target": "T4, cynomolgus PD-L1-His (Sino Biological, Cat. 90251-C08H) (cynomolgus, UniProt Q9NZQ7 19-238 (human entry))", "T4 construct": "Bought protein; also called Cyno PD-L1; Cynomolgus PD-L1 ECD-His; not shown: His tag", "T4 sequence (Q9NZQ7 other isoform, or with tags, fused parts or gaps C08H C08H limits assumed)": "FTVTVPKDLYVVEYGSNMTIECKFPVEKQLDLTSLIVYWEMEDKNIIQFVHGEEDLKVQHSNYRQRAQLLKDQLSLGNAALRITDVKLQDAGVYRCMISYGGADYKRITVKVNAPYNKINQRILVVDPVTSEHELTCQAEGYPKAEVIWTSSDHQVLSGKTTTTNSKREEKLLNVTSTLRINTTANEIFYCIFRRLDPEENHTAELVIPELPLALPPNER", "assay": "ELISA, coated cyno PD-L1-His", "method": "(§1) Briefly, Maxisorp plates (Nunc) were coated with 100 ul/well of 0.5 μg/ml human PD-L1-His (Sino Biological, Cat #10084-H08H) or cynomolgus PD-L1-His (Sino Biological, Cat. 90251-C08H) protein diluted in 1×PBS (GIBCO) overnight at 4° C. Plates were washed three times with 300 μl/well washing buffer (1×PBST, diluted from 20×PBST (Thermo Scientific) with distilled water)) and then blocked with 300 μl/well of blocking buffer (1×PBST/I % BSA) for 2 hours at RT on shaker (100 rpm). Plates were washed and added with 100 μl/well of testing antibodies, which were serial diluted with assay buffer (PBST/1% BSA). The antibodies were incubated at room temperature for 2 hours on plate shaker at 100 rpm. Plates were washed. One hundred microliter of horseradish peroxidase (HRP) conjugated detection antibody was added into each well and incubated at room temperature for 1 hour on plate shaker at 100 rpm. Plates were washed and added with 100 μl/well TMB substrate for color development at room temperature in dark for up to 10 minutes. After addition of 50 μl/well of stop solution (1N H₂SO₄), plates were read at 450 nm on a plate reader (SpectraMax M5).\n(§2) Anti-HEL isotype control (Biolntron) was used as negative control.", "units": {"EC50": "nM"}, "values": [
      {"binder": "B1", "EC50": 0.179},
      {"binder": "B2", "EC50": 0.013},
      {"binder": "B3", "EC50": 0.0177},
      {"binder": "B4", "EC50": 0.0414}
    ]},
    {"biological_target": "T5, human PD-L1-His (Sino Biological, Cat #10084-H08H) (human, UniProt Q9NZQ7 19-238)", "T5 construct": "Bought protein; also called human PD-L1 ECD-His; recombinant human PD-L1-His protein; not shown: His tag", "T5 sequence (Q9NZQ7 19-238)": "as the sequence (Q9NZQ7 other isoform, or with tags, fused parts or gaps C08H C08H limits assumed) above, with T33A, S34A, N62S, Q68R, R82Q, L173F, A185T, I192T, L215H counted along it", "assay": "ELISA, coated human PD-L1-His", "method": "as §1, §2", "units": {"EC50": "nM"}, "values": [
      {"binder": "B1", "EC50": 0.106},
      {"binder": "B2", "EC50": 0.0171},
      {"binder": "B3", "EC50": 0.0159},
      {"binder": "B4", "EC50": 0.0399}
    ]},
    {"biological_target": "T4, cynomolgus PD-L1-His (Sino Biological, …)", "assay": "BLI (Gator), cynomolgus PD-L1", "units": {"Kd": "nM", "koff": "s⁻¹", "kon": "M⁻¹ s⁻¹"}, "values": [
      {"binder": "B1", "Kd": 0.53, "koff": "7e-05", "kon": 133000},
      {"binder": "B2", "Kd": 0.23, "koff": "8.1e-05", "kon": 350000},
      {"binder": "B3", "Kd": 0.33, "koff": 0.000132, "kon": 403000},
      {"binder": "B4", "Kd": 0.93, "koff": 0.000202, "kon": 218000}
    ]},
    {"biological_target": "T3, human PD-L1 expressed on cell surface", "assay": "flow cytometry, MDA-MB-231-GFP cells", "method": "Cells were then resuspended in FACS buffer (1×DPBS/1% FBS) at 10⁶/ml concentration. One hundred microliter (100 μl) of cells were aliquoted into a single well in 96 well plates. The antibodies to be tested were serially diluted at 1:3 fold starting at 15 ug/mL and were then added into each well. The antibodies were mixed with cells and the mixtures were incubated on ice for 1 hour. […] After washing with FACS buffer, stained cells were resuspended at diluted […] (Biolegend, Cat #420404, used at 1:100 dilution) and analyzed on Guava 11HT (Luminex). Data was analyzed using Flowjo software.\nas §2", "units": {"EC50": "nM"}, "values": [
      {"binder": "B1", "EC50": 18.5},
      {"binder": "B2", "EC50": 0.34},
      {"binder": "B3", "EC50": 0.1},
      {"binder": "B4", "EC50": 1.19}
    ]},
    {"biological_target": "T5, human PD-L1-His (Sino Biological, Cat …)", "assay": "BLI (Gator), antibody on HFC probe, human PD-L1-His in solution", "method": "The affinity of the binding of the exemplary anti-PD-L1 antibodies of the present disclosure was determined. Assay was performed according to the protocol recommended by Gator or Gator Plus (Gator Bio Inc.). Briefly, human PD-L1-His (Sino Biological, Cat #10084-H08H) was serially diluted 4-fold, starting at 4 μg/ml. After three times of regeneration in generation buffer (Gator Bio, Cat #120012) and neutralization of HFC probe (Gator Bio, Cat #160003), 1 μg/ml of antibody to be tested in Q buffer (Gator Bio, Cat #120010) was immobilized onto HFC probe. After a baseline step, probe immobilized with antibody was dipped into antigen solutions. The association and dissociation of antigen from antibody was measured on BLI machine Gator. Affinity was calculated using Gator Bio analysis software.\nTable 22 below summarizes the binding affinity to human PD-L1 using Gator.", "units": {"Kd": "nM", "koff": "s⁻¹", "kon": "M⁻¹ s⁻¹"}, "values": [
      {"binder": "B1", "Kd": 0.31, "koff": 0.000113, "kon": 371000},
      {"binder": "B2", "Kd": 0.61, "koff": 0.000329, "kon": 536000},
      {"binder": "B3", "Kd": 0.09, "koff": "7.6e-05", "kon": 810000},
      {"binder": "B4", "Kd": 1.16, "koff": 0.000418, "kon": 361000}
    ]}
  ]
}
